Assay results: the RNAGym collection of RNA variant scans (doi:10.7554/elife.90254)

B1: LINE1-mini (parent)
chain: GGCAGAGCUCAACACAGCGUGGCAAAGUGGCUGUGGCUAGACUGCC

Variants of: B1
Test: self-cleavage, relative activity (ratio to wild type); higher = more cleavage; in vitro, sequencing; the parent is a self-cleaving ribozyme

Compared with CGCAGAGCUCAACACAGCGUGGCAAAGUGGCUGUGGCGAGACUGCC [G1C U38G], CGCAGAGCUCAACACAGCGUGGCAAAGUGGCUGUGGCCAGACUGCC [G1C U38C] is higher in self-cleavage: 0.01 for the first, 0.06 for the second.

Going from CGCAGAGCUCAACACAGCGUGGCAAAGUGGCUGUGGCAAGACUGCC [G1C U38A] to CGCAGAGCUCAACACAGCGUGGCAAAGUCGCUGUGGCUAGACUGCC [G1C G29C], the self-cleavage rises from 0.05 to 0.07.

Going from CGCAGAGCUCAACACAGCGUGGCAAAGUUGCUGUGGCUAGACUGCC [G1C G29U] to CGCAGAGCUCAACACAGCGUGGCAAAGUAGCUGUGGCUAGACUGCC [G1C G29A], the self-cleavage rises from 0.14 to 0.16.

First: CGCAGAGCUCAACACAGCGUGGCAAAGUGGCUAUGGCUAGACUGCC [G1C G33A]
Second: CGCAGAGCUCAACACAGCGUGGCAAAGUGGCUCUGGCUAGACUGCC [G1C G33C]
The self-cleavage of the first is lower: 0.03 for the first, 0.14 for the second.

Compared with CGCAGAGCUCAACACAGCGUGGCAAAGUGGCUUUGGCUAGACUGCC [G1C G33U], UGCAGAGCUCAACACAGCGUGGCAAAGUGGCUGUGGCUCGACUGCC [G1U A39C] is higher in self-cleavage: 0.04 for the first, 0.09 for the second.

First: UGCAGAGCUCAACACAGCGUGGCAAAGUGGCUGUGGCUUGACUGCC [G1U A39U]
Second: UGCAGAGCUCAACACAGCGUGGCAAAGUGGCUGUGGCUGGACUGCC [G1U A39G]
The self-cleavage of the first is higher: 0.2 for the first, 0.05 for the second.

Compared with CGCAGAGCUCAACACAGCGUGGCAAAGUGACUGUGGCUAGACUGCC [G1C G30A], CGCAGAGCUCAACACAGCGUGGCAAAGUGCCUGUGGCUAGACUGCC [G1C G30C] is lower in self-cleavage: 0.18 for the first, 0.04 for the second.

Compared with CGCAGAGCUCAACACAGCGUGGCAAAGUGUCUGUGGCUAGACUGCC [G1C G30U], CGCAGAGCUCAACACAGCGUGGCAAACUGGCUGUGGCUAGACUGCC [G1C G27C] is higher in self-cleavage: 0.06 for the first, 0.14 for the second.

Going from CGCAGAGCUCAACACAGCGUGGCAAAUUGGCUGUGGCUAGACUGCC [G1C G27U] to CGCAGAGCUCAACACAGCGUGGCAAAAUGGCUGUGGCUAGACUGCC [G1C G27A], the self-cleavage rises from 0.12 to 0.16.

First: CGCAGAGCUCAACACAGCGUGGCAAAGUGGCUGCGGCUAGACUGCC [G1C U34C]
Second: CGCAGAGCUCAACACAGCGUGGCAAAGUGGCUGAGGCUAGACUGCC [G1C U34A]
The self-cleavage of the first is higher: 0.03 for the first, 0.01 for the second.

Compared with CGCAGAGCUCAACACAGCGUGGCAAAGUGGCUGGGGCUAGACUGCC [G1C U34G], UGCAGAGCUCAACCCAGCGUGGCAAAGUGGCUGUGGCUAGACUGCC [G1U A14C] is higher in self-cleavage: 0.02 for the first, 0.03 for the second.

First: UGCAGAGCUCAACGCAGCGUGGCAAAGUGGCUGUGGCUAGACUGCC [G1U A14G]
Second: UGCAGAGCUCAACUCAGCGUGGCAAAGUGGCUGUGGCUAGACUGCC [G1U A14U]
The self-cleavage of the first is lower: 0.12 for the first, 0.16 for the second.

Compared with CGCAGAGCUCAACACAGCGUGGCAAAGGGGCUGUGGCUAGACUGCC [G1C U28G], CGCAGAGCUCAACACAGCGUGGCAAAGCGGCUGUGGCUAGACUGCC [G1C U28C] is lower in self-cleavage: 0.07 for the first, 0.02 for the second.

Going from CGCAGAGCUCAACACAGCGUGGCAAAGAGGCUGUGGCUAGACUGCC [G1C U28A] to UGCAGAGCUAAACACAGCGUGGCAAAGUGGCUGUGGCUAGACUGCC [G1U C10A], the self-cleavage falls from 0.04 to 0.03.

Compared with UGCAGAGCUGAACACAGCGUGGCAAAGUGGCUGUGGCUAGACUGCC [G1U C10G], UGCAGAGCUUAACACAGCGUGGCAAAGUGGCUGUGGCUAGACUGCC [G1U C10U] is higher in self-cleavage: 0.03 for the first, 0.08 for the second.

Compared with UGCAGAGCUCAACAAAGCGUGGCAAAGUGGCUGUGGCUAGACUGCC [G1U C15A], UGCAGAGCUCAACAUAGCGUGGCAAAGUGGCUGUGGCUAGACUGCC [G1U C15U] is higher in self-cleavage: 0.08 for the first, 0.21 for the second.

First: UGCAGAGCUCAACAGAGCGUGGCAAAGUGGCUGUGGCUAGACUGCC [G1U C15G]
Second: CGCAGAGCUCAACACAGCGUGGCAAAGUGGCUGUGGCUAGACGGCC [G1C U43G]
The self-cleavage of the first is lower: 0.04 for the first, 0.13 for the second.

Going from CGCAGAGCUCAACACAGCGUGGCAAAGUGGCUGUGGCUAGACAGCC [G1C U43A] to CGCAGAGCUCAACACAGCGUGGCAAAGUGGCUGUGGCUAGACCGCC [G1C U43C], the self-cleavage rises from 0.02 to 0.03.

Compared with UGCAGAGCUCAACACAGCGUGGCAAAGUGGCUGUGGCUAGCCUGCC [G1U A41C], UGCAGAGCUCAACACAGCGUGGCAAAGUGGCUGUGGCUAGGCUGCC [G1U A41G] is higher in self-cleavage: 0.05 for the first, 0.1 for the second.

Going from UGCAGAGCUCAACACAGCGUGGCAAAGUGGCUGUGGCUAGUCUGCC [G1U A41U] to UGCAGAGCUCAACACAGGGUGGCAAAGUGGCUGUGGCUAGACUGCC [G1U C18G], the self-cleavage falls from 0.33 to 0.06.

First: UGCAGAGCUCAACACAGUGUGGCAAAGUGGCUGUGGCUAGACUGCC [G1U C18U]
Second: UGCAGAGCUCAACACAGAGUGGCAAAGUGGCUGUGGCUAGACUGCC [G1U C18A]
The self-cleavage of the first is higher: 0.51 for the first, 0.16 for the second.

Compared with UGCCGAGCUCAACACAGCGUGGCAAAGUGGCUGUGGCUAGACUGCC [G1U A4C], UGCUGAGCUCAACACAGCGUGGCAAAGUGGCUGUGGCUAGACUGCC [G1U A4U] is higher in self-cleavage: 0.06 for the first, 0.22 for the second.

Going from UGCGGAGCUCAACACAGCGUGGCAAAGUGGCUGUGGCUAGACUGCC [G1U A4G] to UGCAGAGCUCAAUACAGCGUGGCAAAGUGGCUGUGGCUAGACUGCC [G1U C13U], the self-cleavage falls from 0.25 to 0.07.

Going from UGCAGAGCUCAAGACAGCGUGGCAAAGUGGCUGUGGCUAGACUGCC [G1U C13G] to UGCAGAGCUCAAAACAGCGUGGCAAAGUGGCUGUGGCUAGACUGCC [G1U C13A], the self-cleavage falls from 0.13 to 0.05.

Compared with CGCAGAGCUCAACACAGCGUGGCAAAGUGGCUGUGGCUAGACUCCC [G1C G44C], CGCAGAGCUCAACACAGCGUGGCAAAGUGGCUGUGGCUAGACUUCC [G1C G44U] is higher in self-cleavage: 0.03 for the first, 0.06 for the second.

First: CGCAGAGCUCAACACAGCGUGGCAAAGUGGCUGUGGCUAGACUACC [G1C G44A]
Second: UGCAGAGCUCAACACAGCGUGGCAAAGUGGCUGUGGCUAGACUGCC [G1U]
The self-cleavage of the first is lower: 0.06 for the first, 0.33 for the second.

Compared with CGCAGAGCUCAACACAGCGUGGCAAAGUGGCCGUGGCUAGACUGCC [G1C U32C], CGCAGAGCUCAACACAGCGUGGCAAAGUGGCGGUGGCUAGACUGCC [G1C U32G] is higher in self-cleavage: 0.03 for the first, 0.04 for the second.

First: CGCAGAGCUCAACACAGCGUGGCAAAGUGGCAGUGGCUAGACUGCC [G1C U32A]
Second: UGCAGAGCUCAACACAGCGUGGCAAUGUGGCUGUGGCUAGACUGCC [G1U A26U]
The self-cleavage of the first is lower: 0.02 for the first, 0.34 for the second.
